Laboratory results reported in publication PMC12225155.

Target: importin α5 (UniProt P52294)
Experiment: co-immunoprecipitation, western blot
Conditions: reference: KIAA1429-WT; sites S1579

In the case of “KIAA1429 (VIRMA) (from UniProt Q69YN4) KIAA1429-SA (S1579A)”, the “binding against the reference” value is reported as “stronger”.
